From article PMC6212770 (Nucleic Acids Research, 2018) come the findings set out here.

The target of data set [1] is T1, HermesΔ transposase (UniProt Q25438 79-612, C519S;del497-516).
T1 sequence: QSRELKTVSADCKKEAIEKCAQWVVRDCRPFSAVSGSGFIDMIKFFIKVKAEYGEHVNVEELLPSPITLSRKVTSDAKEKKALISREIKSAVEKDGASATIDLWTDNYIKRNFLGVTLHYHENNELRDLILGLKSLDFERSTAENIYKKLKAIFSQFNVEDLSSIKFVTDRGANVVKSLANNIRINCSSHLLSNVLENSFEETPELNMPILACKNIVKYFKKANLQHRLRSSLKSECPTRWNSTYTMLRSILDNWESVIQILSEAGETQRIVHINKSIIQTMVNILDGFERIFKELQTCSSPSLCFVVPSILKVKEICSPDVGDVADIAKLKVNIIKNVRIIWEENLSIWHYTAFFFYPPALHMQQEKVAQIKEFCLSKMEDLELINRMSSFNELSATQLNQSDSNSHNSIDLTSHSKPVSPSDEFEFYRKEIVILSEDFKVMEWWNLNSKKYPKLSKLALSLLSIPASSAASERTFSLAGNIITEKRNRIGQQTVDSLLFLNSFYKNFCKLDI
Description: X-ray crystallography; 8 mM Mn2+ soak, 48 h; two Mn2+ in active site, third Mn2+ at N185; Complex dialyzed at 4°C in 25 mM HEPES pH 7.5, 0.3 mM TCEP, 0.5 M then 250 mM NaCl, with or without 5 mM MgCl2; DNA:protein 1:1.05 as printed.

Data set [2] deals with the molecule itself. Briefly: crystal structure; HermesΔ co-crystallised with annealed DNA(C:G) or DNA(A:T) oligonucleotides, hanging drops at 4°C, with or without a soak in 8 mM CaCl2 or MnCl2; four structures at 2.85-3.2 Å.
The target in data set [3] is T1, HermesΔ transposase. Description: X-ray crystallography; no metal ions; Complex dialyzed at 4°C in 25 mM HEPES pH 7.5, 0.3 mM TCEP, 0.5 M then 250 mM NaCl, with or without 5 mM MgCl2; DNA:protein 1:1.05 as printed.

B1: DNA(A:T) (dsDNA)
DNA 1: GCGTGAA
DNA 2: AGAGAACAACAACAAG
DNA 3: CTTGTTGTTGTTCTCTGGTTCACGC
For the molecule B1, the binding result with HermesΔ transposase [1] was “binds”.

B2: Hermes_(79-612Δ497-516) (enzyme, Musca domestica, UniProt Q25442 79-612, looked up)
chain: QSRELKTVSADCKKEAIEKCAQWVVRDCRPFSAVSGSGFIDMIKFFIKVGAEYGEHVNVEELLPSPITLSRKVTSDAKEKKALISREIKSAVEKDGASATIDLWTDNYIKRNFLGVTLHYHENNELRDLILGLKSLDFERSTAENIYKKLKAIFLQFNVEDLSSIKFVTDRGANVVKSLANNIRINCSSHLLSNVLENSFEETPELNVPILACKNIVKYFKKANLQHRLRSSLKSECPTRWNSTYTMLRSILDNWESVIQILSEAGETQRIVHINKSIIQTMVNILDGFERIFKELQTCSSPSLCFVVPSILKVKEICSPDVGDVADIAKLKVNIIKNVRIIWEENLSIWHYTAFFFYPPALHMQQEKVAQIKEFCLSKMEDLELINRMSSFNELSATQLNQSDSNSHNSIDLTSHSKPVSPSDEFEFYRKEIVILSEDFKVMEWWNLNSKKYPKLSKLALSLLSIPASSAASERTFSLAGNIITEKRNRIGQQTVDSLLFLNSFYKNFCKLDI
As for B2, the binding result in data set [2] is “binds”.

B3: DNA(C:G) (dsDNA)
DNA 1: GCGTGAC
DNA 2: AGAGAACAACAACAAG
DNA 3: CTTGTTGTTGTTCTCTGGGTCACGC
As for B3, the binding result with HermesΔ transposase [3] was “binds”.
